Measurements published in the supplement of paper PMC10126150.
± gives the standard deviation of the averaged measurements.

System: ATP
Experiment: switch fluorescence ratio, 500 uM ATP over buffer (Cy3 cluster intensity, sum of 5 cycles each) (fold (ratio)); higher = stronger signal-on switching upon ATP binding; sequences stand for … in TCGTCGGCAGCGTCAGATGTGTATAAGAGACAGTTTTTTTTTTTTTTTTTTTTTTTTT…TC
Settings: aptamer strand: ATP DNA aptamer (quencher-CACCTGGGGGAGTATTGCGGAGGAAGG + anchor), 100 nM annealed; ATP concentration: 500 uM
Procedure, shortened: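 For every switch-domain sequence, the fluorescence ratio is the mean of per-cluster values, each being summed target-cycle Cy3 intensity over summed buffer-cycle Cy3 intensity. Clusters outside 100-1000 RFU were excluded. On a modified Illumina MiSeq flow-cell, the Cy3-labelled switching-strand clusters were annealed to 100 nM quencher-labelled ATP aptamer, imaged in selection buffer and then after 15 min with 500 uM ATP at 22 °C. Five such cycles were run, with NaOH stripping and re-annealing between them.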
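Also: ATP exposure 15 min at 22 °C before imaging.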

Row | Sequence | switch fluorescence ratio
1 | GGGAAGTCGG | 0.9824 ± 0.0094
2 | GGGAAGTGAG | 1.013 ± 0.006
3 | GGGAATAATA | 0.991 ± 0.023
4 | GGGAATAATG | 1.01 ± 0.0091
5 | GGGAATACGT | 1.03 ± 0.029
6 | GGGAATAGCG | 0.977 ± 0.046
7 | GGGAATCGCT | 0.973 ± 0.023
8 | GGGAATGGGA | 0.997 ± 0.027
9 | GGGAATTGTT | 0.977 ± 0.014
10 | GGGACACGGC | 0.996 ± 0.059
11 | GGGACAGGCG | 0.991 ± 0.095
12 | GGGACCCAAG | 1.02 ± 0.046
13 | GGGACGCGCA | 0.984 ± 0.036
14 | GGGACGGAAA | 1.11 ± 0.16
15 | GGGACGGCGG | 1.004 ± 0.0087
16 | GGGACTATTT | 1.01 ± 0.013
17 | GGGACTGGGG | 1.02 ± 0.061
18 | GGGAGAAAAT | 1.02 ± 0.011
19 | GGGAGAATAG | 0.985 ± 0.036
20 | GGGAGAATTG | 1.01 ± 0.037
21 | GGGAGACGGT | 1.02 ± 0.068
22 | GGGAGAGCA | 0.9821 ± 0.0098
23 | GGGAGAGGTG | 0.989 ± 0.027
24 | GGGAGCCAGT | 1.05 ± 0.12
25 | GGGAGCGTTT | 0.981 ± 0.046

Row | Sequence | switch fluorescence ratio
26 | GGGAGGAAGC | 0.99 ± 0.0049
27 | GGGAGGAAGG | 0.974 ± 0.028
28 | GGGAGGAATG | 0.989 ± 0.021
29 | GGGAGGACTT | 0.977 ± 0.029
30 | GGGAGGATCG | 0.993 ± 0.069
31 | GGGAGGATTA | 1 ± 0.031
32 | GGGAGGCGAT | 0.975 ± 0.051
33 | GGGAGGCGGT | 1.01 ± 0.019
34 | GGGAGGGTGC | 1.02 ± 0.07
35 | GGGAGTGGGG | 0.989 ± 0.025
36 | GGGAGTGGGT | 0.99 ± 0.024
37 | GGGAGTGTGG | 1.001 ± 0.0062
38 | GGGAGTTGCT | 0.986 ± 0.039
39 | GGGAGTTTCG | 1.06 ± 0.095
40 | GGGATAAAGA | 1.001 ± 0.003
41 | GGGATAAAGG | 0.993 ± 0.035
42 | GGGATAAGAG | 0.973 ± 0.029
43 | GGGATAAGGC | 1.08 ± 0.014
44 | GGGATAAGGT | 0.979 ± 0.03
45 | GGGATAATTG | 0.978 ± 0.024
46 | GGGATACTAG | 1.01 ± 0.02
47 | GGGATACTTT | 1.5 ± 0.73
48 | GGGATAGAGC | 0.965 ± 0.05
49 | GGGATAGGGC | 1.04 ± 0.054
50 | GGGATAGGTT | 1.07 ± 0.12

Row | Sequence | switch fluorescence ratio
51 | GGGATAGTTT | 1 ± 0.063
52 | GGGATATCGA | 0.975 ± 0.021
53 | GGGATATGAT | 0.9829 ± 0.0029
54 | GGGATCGAGG | 1.01 ± 0.035
55 | GGGATCGTAC | 1.07 ± 0.041
56 | GGGATCGTAT | 0.9856 ± 0.0054
57 | GGGATGGGAC | 1.043 ± 0.0081
58 | GGGATGGTGT | 0.962 ± 0.016
59 | GGGATGGTTA | 0.971 ± 0.056
60 | GGGATGTAAG | 0.966 ± 0.027
61 | GGGATGTTTT | 0.991 ± 0.012
62 | GGGATTACGG | 0.9899 ± 0.0051
63 | GGGATTAGTT | 1.03 ± 0.023
64 | GGGATTATGG | 1.01 ± 0.038
65 | GGGATTCAAC | 1.018 ± 0.0085
66 | GGGATTCCTG | 0.9777 ± 0.0061
67 | GGGATTCTTA | 0.996 ± 0.021
68 | GGGATTTACG | 1.02 ± 0.019
69 | GGGATTTGTT | 0.9888 ± 0.0057
70 | GGGATTTTCT | 1.011 ± 0.0091
71 | GGGATTTTGT | 0.983 ± 0.012
72 | GGGATTTTTT | 1.06 ± 0.16
73 | GGGCAAAGTA | 0.924 ± 0.039
74 | GGGCAAGAAG | 1.021 ± 0.0073
75 | GGGCAAGCAT | 0.999 ± 0.037

Row | Sequence | switch fluorescence ratio
76 | GGGCAAGGGC | 1.038 ± 0.01
77 | GGGCAATTGA | 1 ± 0.051
78 | GGGCACGAAG | 1 ± 0.013
79 | GGGCACGCTG | 1.033 ± 0.0053
80 | GGGCAGAGGA | 1.0929 ± 0.00017
81 | GGGCATGATG | 1.02 ± 0.055
82 | GGGCATGGGC | 0.9965 ± 0.0015
83 | GGGCATGTAG | 0.996 ± 0.058
84 | GGGCATTGTG | 1.03 ± 0.056
85 | GGGCATTTTG | 0.998 ± 0.015
86 | GGGCATTTTT | 0.9824 ± 0.0041
87 | GGGCCAGTGA | 1.03 ± 0.039
88 | GGGCCATGTA | 1 ± 0.034
89 | GGGCCCCTTG | 1.01 ± 0.073
90 | GGGCCCTAAT | 0.982 ± 0.03
91 | GGGCCGATCA | 0.997 ± 0.036
92 | GGGCCGGGGC | 1.01 ± 0.024
93 | GGGCCGGGGG | 1 ± 0.022
94 | GGGCCGGGTT | 1.01 ± 0.021
95 | GGGCCGTGGG | 0.992 ± 0.017
96 | GGGCCTATAG | 0.9859 ± 0.0085
97 | GGGCCTGGTG | 1.42 ± 0.013
98 | GGGCCTGTGA | 1 ± 0.03
99 | GGGCGAAGCG | 0.986 ± 0.035
100 | GGGCGCAACG | 1.05 ± 0.073
